Results on nine substances are retold here after patent publication US20080213296A1.

In assay [1] the target is HIV 89.6 gp140 envelope protein (cleaved gp140 preparation, oligomers) (HIV 89.6 (Clade B) primary isolate). In words: SPR, D1 peptide over 89.6 gp140 captured on immobilized CD4 (CD4-gp140 complex). Background: In SPR one partner is held on a chip, and binding of the other changes the refractive index at the surface.
Assay [2] shares this target. In words: SPR, sCD4-ligated gp140.
For assay [3] the target is unchanged. In words: SPR, D1 peptide over directly immobilized 89.6 gp140, no CD4.
In assay [4] the target is recombinant HIV ADA gp41 protein (HIV ADA). In words: SPR, 89.6 gp120 pre-incubated with 0.3 mg/ml CD4, over immobilized ADA gp41.
The target in assay [5] is soluble CD4 (UniProt P01730). In words: SPR.
Assay [6] deals with soluble CD4 (UniProt P01730). In words: SPR, gp120 over immobilized CD4.
For assay [7], the target named is recombinant HIV ADA gp41 protein (HIV ADA). Kind of assay: SPR, 89.6 gp120 (100 µg/ml) over immobilized ADA gp41.
Assay [8] concerns the target HIV 89.6 gp120 envelope protein (soluble) (HIV 89.6 (Clade B) primary isolate). Kind of assay: SPR capture assay, mAb pre-incubated with 89.6 gp120, captured on A32; competitor DP178 50 µg/ml.
Assay [9] shares this target. In words: SPR capture assay, gp120 over immobilized A32.
The target in assay [10] is scrambled sequence DP178 peptide. In words: SPR SA-chip assay, A32 over biotinylated scrDP178.
The target of assay [11] is HIV 89.6 gp120 envelope protein (soluble) (HIV 89.6 (Clade B) primary isolate). In words: SPR SA-chip assay, 89.6 gp120 alone over biotinylated scrDP178.

Several values for one entry are separate records, joined by “and”; a condition that tells them apart may be missing. Identical values can stand only once.

Usually Kd stands for a measure of binding affinity in units of concentration. Read a high Kd as weaker binding. As usually defined, the koff is a measure of how fast the partners let go of each other. Read a high koff as fast dissociation. What is called kon is the second-order rate constant of association. As to “CCR5-D1 peptide (CCR5 N-terminal extracellular domain peptide)”, the Kd in [1] was 280 nM; in [2], 280000 nM; in [3], 1000 nM. For the same substance, the koff in assay [1] was 0.00256 s⁻¹; in assay [3], 0.01 s⁻¹. Further, in assay [1], the kon came out at 9000 M⁻¹ s⁻¹.

“HIV 89.6 gp120 envelope protein (soluble)”: the RU bound in assay [4] came to 850 RU. Moreover, the t1/2 of binding with soluble CD4 [5] is 105 min. In the assay with soluble CD4 [6], this substance registered a Kd of 23 nM and a koff of 0.00011 s⁻¹. Besides, the RU bound in assay [7] amounted to 300 RU.

Substance HIV DH12 gp120 (soluble, monomeric) came in with a t1/2 of binding with soluble CD4 [5] of 25 min. In addition, in the assay with soluble CD4 [6], the Kd was 96 nM and the koff was 0.00047 s⁻¹.

As for HIV JRFL gp120 (soluble, monomeric), the t1/2 of binding with soluble CD4 [5] was found to be 14 min. In the assay with soluble CD4 [6], this substance yielded a Kd of 146 nM and a koff of 0.00088 s⁻¹.

“mAb 48d (human, coreceptor binding site of gp120) (antibody)” displayed a % blocking of DP178 binding in [8] of 80%.

“mab 17b (human, CCR5/coreceptor binding site of gp120) (antibody)” showed a % blocking of DP178 binding in [8] of 80%.

On to “mab 19b (human anti-gp120 V3 loop) (antibody)”, for which, in assay [8], the % blocking of DP178 binding came to 68%.

“mab A32 (human anti-gp120, conformational determinant) (antibody)”: the RU bound in assay [9] was 2000 RU. The RU (background signal) in assay [10] is 10 RU and 20 RU.

Consider scrambled sequence DP178 peptide, for which the RU (constitutive binding) in assay [11] is 50 RU.
